In patent publication US20130209489A1 (Amgen, published 2013):

Experiments:
mature human myostatin [1] = target: T1, mature human myostatin (human, UniProt O14793 267-375); experiment: ratio of the affinities for GDF11 and myostatin
T1 construct: they are put on this molecule; also called GDF-8; recombinant mature myostatin

GDF3 = target: T2, GDF3 (UniProt Q9NR23 251-364); experiment: Biacore SPR, ligand flowed over immobilized antibody
T2 sequence (looked up): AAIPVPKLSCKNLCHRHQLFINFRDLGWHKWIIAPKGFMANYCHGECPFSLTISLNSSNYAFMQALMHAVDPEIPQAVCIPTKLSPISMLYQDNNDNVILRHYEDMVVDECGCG
Description: (§1) Binding specificity analysis was carried out for 12A5-5 using Biacore™, a label-free surface plasmon resonance (SPR) based technology for studying biomolecular interactions in real time (GE Healthcare, Chalfont St. Giles, UK). 12A5-5, and ActRIIB/Fc were made in house, TGFbetaR11/Fc and BMPR-1A/Fc were from R & D Systems (Minneapolis, Minn.). […] Ten nanomolar of each of the ligands was flowed over immobilized high density antibody and receptor surfaces. Binding of Myostatin, GDF11, GDF3, Activin A, Activin AB, Activin AC, TGF-beta1, BMP4, BMP9, and BMP10 to their corresponding receptors was tested and used as control to normalize the signals of the ligands binding to 12A5-5 and the other receptors.

Activin A = target: T3, Activin A (UniProt P08476 311-426); experiment: as above
T3 sequence (looked up): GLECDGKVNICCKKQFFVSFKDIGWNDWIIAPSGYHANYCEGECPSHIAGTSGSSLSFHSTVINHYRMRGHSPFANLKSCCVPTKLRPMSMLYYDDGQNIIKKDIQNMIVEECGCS
Description: as §1

Activin AB = target: T4, Activin AB (UniProt P08476 311-426; P09529 293-407); experiment: as above
T4 construct: the two chains follow from the usual meaning of Activin AB
T4 sequence (looked up) 1: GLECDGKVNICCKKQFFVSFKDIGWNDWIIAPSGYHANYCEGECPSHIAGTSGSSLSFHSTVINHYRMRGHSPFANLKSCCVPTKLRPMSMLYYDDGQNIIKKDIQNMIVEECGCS
T4 sequence (looked up) 2: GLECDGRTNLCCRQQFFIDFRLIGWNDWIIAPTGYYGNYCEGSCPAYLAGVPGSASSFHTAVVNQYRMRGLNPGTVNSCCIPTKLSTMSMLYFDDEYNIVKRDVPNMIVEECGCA
Description: as §1

Activin AC = target: T5, Activin AC (UniProt P08476 311-426; P55103 237-352); experiment: as above
T5 construct: the two chains follow from the usual meaning of Activin AC
T5 sequence (looked up) 1: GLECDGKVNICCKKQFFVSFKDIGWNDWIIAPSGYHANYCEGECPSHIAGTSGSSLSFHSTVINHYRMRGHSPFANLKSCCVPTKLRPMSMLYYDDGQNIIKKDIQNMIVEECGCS
T5 sequence (looked up) 2: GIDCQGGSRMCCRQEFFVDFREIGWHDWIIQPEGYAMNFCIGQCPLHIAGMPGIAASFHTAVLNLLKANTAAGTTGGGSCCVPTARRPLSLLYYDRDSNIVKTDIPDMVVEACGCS
Description: as §1

TGF-beta1 = TGF-beta1 (UniProt P01137 279-390); experiment: as above
TGF-beta1, sequence (P01137 279-390 limits assumed): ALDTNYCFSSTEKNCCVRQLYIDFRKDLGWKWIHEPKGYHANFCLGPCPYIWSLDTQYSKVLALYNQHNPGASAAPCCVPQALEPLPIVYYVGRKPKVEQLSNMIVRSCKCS
Description: as §1

BMP4 = target: T6, BMP4 (UniProt P12644 293-408); experiment: as above
T6 sequence (looked up): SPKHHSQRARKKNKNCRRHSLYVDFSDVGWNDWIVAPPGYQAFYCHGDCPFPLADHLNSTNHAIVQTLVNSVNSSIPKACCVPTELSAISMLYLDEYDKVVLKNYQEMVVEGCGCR
Description: as §1

BMP9 = target: T7, BMP9 (UniProt Q9UK05 320-429); experiment: as above
T7 sequence (looked up): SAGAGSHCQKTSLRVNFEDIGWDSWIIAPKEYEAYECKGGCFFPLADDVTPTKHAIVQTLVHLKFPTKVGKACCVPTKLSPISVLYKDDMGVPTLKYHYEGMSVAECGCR
Description: as §1

BMP10 = target: T8, BMP10 (UniProt O95393 317-424); experiment: as above
T8 sequence (looked up): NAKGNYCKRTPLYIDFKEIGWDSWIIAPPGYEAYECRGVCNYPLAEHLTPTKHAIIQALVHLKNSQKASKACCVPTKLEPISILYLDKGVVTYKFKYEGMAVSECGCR
Description: as §1

GDF11 = target: T9, GDF11 (UniProt O95390 299-407); experiment: separate experiment, method not named (Biacore section)
T9 construct: also called growth and differentiation factor 11; BMP-11
T9 sequence (O95390 299-407 limits assumed): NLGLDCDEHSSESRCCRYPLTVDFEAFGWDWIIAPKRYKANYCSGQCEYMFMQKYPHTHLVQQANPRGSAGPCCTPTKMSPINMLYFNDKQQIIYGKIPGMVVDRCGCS

mature human myostatin [2] = target: T1, mature human myostatin; experiment: KinExA solution equilibrium assay, myostatin-coated beads
Text: (§2) Solution-based equilibrium-binding assays using KinExA® technology (Sapidyne Instruments, Inc.) are employed to determine the dissociation equilibrium (Kd) of myostatin binding to antibody molecules. This solution-based assay is considered to be more sensitive than the BIAcore® assay in some instances. Reacti-Gel 6×(a highly reactive, cross-linked 6% agarose bead for immobilization of amine-containing ligands; Thermo Scientific Pierce, Rockford, Ill.) is pre-coated with about 50 microG/ml myostatin overnight, and then blocked with bovine serum albumin (BSA; 1 mg/ml). Antibody samples (10 pM, and 30 pM) were incubated with various concentrations (0.5 pM to 5 nM) of myostatin in sample buffer containing 0.1 mg.ml BSA at room temperature for eight hours before being run through the myostatin-coated beads. The amount of the bead-bound antibody is quantified by fluorescent (Cy5) labeled goat anti-human-Fc antibody at 1 mg/ml in SuperBlock® (an optimized protein-based solution for blocking excess binding sites; Thermo Scientific Pierce, Rockford, Ill.). The binding signal is proportional to the concentration of free antibody at equilibrium with a given myostatin concentration. Kd is obtained from the nonlinear regression of the competition curves using a dual-curve one-site homogeneous binding model provided in the KinExA™ software (Sapidyne Instruments, Inc.).

promyostatin = promyostatin (UniProt O14793 24-375, limits assumed); experiment: KinExA solution equilibrium assay, promyostatin-coated beads
Text: as §2, with “Kd is obtained from the nonlinear regression of the competition curves using a dual-curve one-site homogeneous binding model provided in the KinExA™ software (Sapidyne Instruments, Inc.).” left out
A KinExA™ assay similar to the one previously described was run, using promyostatin instead of mature myostatin. […] The amount of the bead-bound antibody is quantified substantially as previously described.

B1: anti-myostatin neutralizing monoclonal antibody 12A5-5 (antibody, V domains shown)
VH: EVQLVESGGGLVQPGGSLRLSCAASGFTFSRYWMNWVRQAPGKGLEWVAQIRLKSDNYATHYAESVKGRFTISRDNAKNSLYLQMNSLRAEDTAVYYCTEGLDYWGQGTTVTVSS
VL: DIQMTQSPSSLSASVGDRVTITCKASQDINKYVAWYQQKPGKAPKLLIYYTSWLQPGVPSRFSGSGSGTDFTFTISSLQPEDIATYYCLQYDNLLYTFGQGTKLEIK
notes: in the KinExA assay it was detected with a goat anti-human-Fc antibody, so it carries a human Fc; also called Mab 12A5-5; MAb 12A5-5
Mature human myostatin [1]
  fold selectivity for myostatin over GDF11: ~10000 fold
GDF3
  binding result: no binding (tested: Ten nanomolar of each of the ligands)
Activin A
  binding result: no binding (tested: Ten nanomolar of each of the ligands)
Activin AB
  binding result: no binding (tested: Ten nanomolar of each of the ligands)
Activin AC
  binding result: no binding (tested: Ten nanomolar of each of the ligands)
TGF-beta1
  binding result: no binding (tested: Ten nanomolar of each of the ligands)
BMP4
  binding result: no binding (tested: Ten nanomolar of each of the ligands)
BMP9
  binding result: no binding (tested: Ten nanomolar of each of the ligands)
BMP10
  binding result: no binding (tested: Ten nanomolar of each of the ligands)
GDF11
  Kd: ~180000 pM
Mature human myostatin [2]
  Kd: ~2 pM
promyostatin
  Kd: ~2 pM
